Measured values as given in ChEMBL document CHEMBL1135259, “Azapeptides as inhibitors of the hepatitis C virus NS3 serine protease” (Bioorg Med Chem Lett, 2002).

How the values were obtained:
Settings in all cases: Hepacivirus hominis
[1] = substrate: CCCN(NC(=O)[C@H]1CCCN1C(=O)[C@@H](NC(=O)[C@@H](NC(=O)[C@H](CC(=O)O)NC(=O)[C@H](CCC(=O)O)NC(=O)[C@@H](NC(=O)[C@H](CC(=O)O)NC(C)=O)[C@@H](C)O)C(C)C)C(C)C)C(=O)Oc1ccc([N+](=O)[O-])cc1; assay: Michaelis-Menten constant against Hepatitis C virus NS3 protease and represented as Km
[2] = substrate: CCCN(NC(=O)[C@H]1CCCN1C(=O)[C@@H](NC(=O)[C@@H](NC(=O)[C@H](CC(=O)O)NC(=O)[C@H](CCC(=O)O)NC(=O)[C@@H](NC(C)=O)[C@@H](C)O)C(C)C)C(C)C)C(=O)Oc1ccc([N+](=O)[O-])cc1; assay: Binding affinity against Hepatitis C virus NS3 protease
[3] = substrate: CCCN(NC(=O)[C@H]1CCCN1C(=O)[C@@H](NC(=O)[C@@H](NC(C)=O)C(C)C)C(C)C)C(=O)Oc1ccc([N+](=O)[O-])cc1; assay: (§1) Michaelis-Menten constant was determined against Hepatitis C virus NS3 protease and represented as Km
[4] = substrate: CCCC(NC(=O)[C@H]1CCCN1C(=O)[C@@H](NC(=O)[C@@H](NC(=O)[C@H](CC(=O)O)NC(=O)[C@H](CCC(=O)O)NC(=O)[C@@H](NC(=O)[C@H](CC(=O)O)NC(C)=O)[C@@H](C)O)C(C)C)C(C)C)C(=O)Oc1ccc([N+](=O)[O-])cc1; assay: as §1
[5] = substrate: CCCN(NC(=O)[C@H]1CCCN1C(=O)[C@@H](NC(=O)[C@@H](NC(=O)[C@H](CC(=O)O)NC(C)=O)C(C)C)C(C)C)C(=O)Oc1ccc([N+](=O)[O-])cc1; assay: as §1
[6] = substrate: CCCN(NC(=O)[C@H]1CCCN1C(=O)[C@@H](NC(=O)[C@@H](NC(=O)[C@H](CC(=O)O)NC(=O)[C@H](CCC(=O)O)NC(C)=O)C(C)C)C(C)C)C(=O)Oc1ccc([N+](=O)[O-])cc1; assay: as §1

B1: NS3 (Hepatitis C virus), A3EZJ3 (protein)
chain: APITAYAQQTRGLLGCIITGLTGRDKNQVEGEVQIVSTAAQTFLATCINGVCWTVYHGAGTRTIASSKGPVIQMYTNVDQDLVGWPAPQGARSLTPCTCGSSDLYLVTRHADVIPVRRRGDGRGSLLSPRPISYLKGSSGGPLLCPAGHAVGIFRAAVCTRGVAKAVDFIPVEGLETTMRSPVFSDNSSPPAVPQSYQVAHLHAPTGSGKSTKVPAAYAAQGYKVLVLNPSVAATLGFGAYMSKAHGIDPNIRTGVRTITTGSPITYSTYGKFLADGGCSGSAYDIIICDECHSTDATSILGIGTVLDQAETAGARLTVLATATPPGSVTVPHPNIEEVALSTTGEIPFYGKAIPLEAIKGGRHLIFCHSKKKCDELAAKLVALGVNAVAYYRGLDVSVIPASGDVVVVATDALMTGFTGDFDSVIDCNTCVTQTVDFSLDPTFTIETTTLPQDAVSRTQRRGRTGRGKPGIYRFVTPGERPSGMFDSSVLCECYDAGCAWYELTPAETTVRLRAYMNTPGLPVCQDHLEFWEGVFTGLTHIDAHFLSQTKQSGENLPYLVAYQATVCARAQAPPPSWDQMWKCLIRLKPTLHGPTPLLYRLGAVQNEITLTHPITKYIMTCMSADLEVVT
[1]
  Km: 5 µM
[2]
  Km: 5 µM
[3]
  Km: 100 µM
[4]
  Km: 4 µM
[5]
  Km: 9 µM
[6]
  Km: 4 µM
